Where “and” joins values, the source holds several entries; their conditions need not be identical. Identical values can stand only once.
Experiments:
[1] = target: human fibronectin (human) (UniProt P02751); test: Scatchard analysis (LIGAND) of 125I-fibronectin binding to coated fibronectin competed by unlabeled fibronectin
[2] = target: human fibronectin (human) (UniProt P02751); test: Scatchard analysis (LIGAND) of 125I-fibronectin binding to coated fibronectin competed by unlabeled fibronectin; low affinity site
[3] = target: human fibronectin (human) (UniProt P02751); test: Scatchard analysis (LIGAND), fibronectin on coated fibronectin

In the case of human fibronectin (from UniProt P02751), the Kd [1] is reported as 8 nM, the Kd [2] is reported as 800 nM and the binding sites per 1000 fibronectin dimers, high affinity site (sites per 1000 fibronectin dimers) [3] is reported as 1 and 2. For the same substance, the binding sites per fibronectin dimer, low affinity site (sites per fibronectin dimer) [3] was 1 and 2.
